Results taken from US12565517B2, “Cyclic peptide having CTLA-4 inhibitory activity and use thereof” (GeneFrontier Corporation, priority 2019, dated 2026).

Biological target: T1, CTLA-4 (Homo sapiens, UniProt P16410)
T1 sequence (P16410 36-223): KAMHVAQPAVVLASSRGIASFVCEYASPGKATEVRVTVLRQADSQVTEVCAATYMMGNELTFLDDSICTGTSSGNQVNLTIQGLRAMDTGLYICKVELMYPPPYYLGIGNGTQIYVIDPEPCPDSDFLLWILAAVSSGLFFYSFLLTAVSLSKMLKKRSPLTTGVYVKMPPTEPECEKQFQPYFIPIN
Experiment: ELISA binding of clones after Affinity Maturation with random library (Tables 10, 11)
Experimental: After each round of Affinity Maturation, the cyclic peptide genes were recovered and subcloned into pET-Mal vector (FIG. 2) in the same manner as described above to perform base sequence analysis. For the 94 single colonies analyzed for sequence, E. coli transformants were inoculated into 100 μL of 2×YT medium containing ampicillin (final concentration 50 μg/mL), incubated at 37° C. for 3-5 hours (OD600=0.5-0.8), then added with IPTG (final concentration 0.5 mM) and incubated at 25° C. overnight. 10 μL of E. coli cultured medium was added with 90 μL of PBS and 40 μL of lysis reagent (20 μL BugBuster Protein Extraction Reagent (Novagen), 20 μL Lysozyme solution 2.5 mg/mL) to lyse E. coli cells for 1 hour at room temperature. The cell lysate was added with 40 μL of 12.5% skim milk solution (TBST) and blocked for 1 hour at room temperature. In parallel, antigen protein was immobilized overnight at 4° C. in 384-well plates at 100 ng/20 μL per well, and each well was washed twice with 100 μL/well of TBST, added with 100 μL/well of 5% skim milk solution (TBST) for blocking for 1 hour at room temperature, and washed twice with 100 μL/well of TBST to obtain antigen-immobilized plates. 20 μL/well of blocking-treated E. coli extract was added to the antigen-immobilized plates and gently stirred at room temperature using a plate mixer. After 1 hour, the plates were washed 5 times with 100 μL/well of TBST, 20 μL/well of anti-FLAG M2-HRP conjugate (1:2000 dilution, Sigma) was added and gently stirred on a plate mixer for 1 hour at room temperature. The plates were washed 5 times with 100 μL/well of TBST, and binding of cyclic peptides to the antigen was detected by 20 μL/well of chromogenic substrate (0.4 mg/mL 3,3′,5,5′-Tetramethyl-benzidine, 0.01% hydrogen peroxide). After 15 minutes of reaction at room temperature, the reaction was stopped with 20 μL/well of 2N HCl, and absorbance at 450 nm was measured using a plate reader (infinite F200: TECAN) (Table 5).
Oligo DNAs of a library were synthesized (see below), in which amino acid residues (positions 1, 4, 8, 10, +1 and +2) (corresponding to X1, […], X8, X10, X+1 and X+2) other than those essential or advantageous for CTLA-4 binding (2H, 3P, 5L, 6P, 7I, 9S, 11H, 12F) identified by alanine scanning were randomized (NNS).
Affinity Maturation was performed in the same manner as described above. The amount of biotinylated CTLA-4 immobilized on the magnetic beads was 10 pmol in the 1st round, 2 pmol in the 2nd round, and 1 pmol in the 3nd-5th rounds, respectively. The washing period was 2 hours for the 1st round, 19 hours for the 2nd round, 67 hours for the 3nd round, 140 hours for the 4th round, and 340 hours for the 5th round. Washing frequency was 1 time (2 hours) in the 1st round, 2 times (every 10 hours) in the 2nd round, 6 times (every 10 hours) in the 3rd round, 14 times (every 10 hours) in the 4th round, and 36 times (every 10 hours) in the 5th round.

[1] = CTLA-4 binding ELISA of clones after Affinity Maturation from random (NNS) library, signal/noise ratio, clones of 4th or 5th round
[2] = S/N ratio of CTLA-4 binding in ELISA, clones from 4th or 5th round of Affinity Maturation from random (NNS) library

Substance	ELISA S/N(SA) [1]	ELISA S/N(SA) [2]
C4m3127-4th-NNS6-2 (GGCWHPSLPIYSPHFCPL; C4m3127-4th-NNS6-2) [Clone C4m3127-4th-NNS6-2]	12.8	–
C4m3127-4th-NNS6-3 (GGCSHPFLPIWSVHFCGQ; C4m3127-4th-NNS6-3) [Clone C4m3127-4th-NNS6-3]	10.9	–
C4m3127-4th-NNS6-7 (GGCRHPFLPIRSPHFCGS; C4m3127-4th-NNS6-7) [Clone C4m3127-4th-NNS6-7]	4.7	–
C4m3127-4th-NNS6-16 (GGCWHPYLPIFSVHFCPR; C4m3127-4th-NNS6-16) [Clone C4m3127-4th-NNS6-16]	16.5	–
C4m3127-4th-NNS6-17 (GGCRHPVLPIVSLHFCPG; C4m3127-4th-NNS6-17) [Clone C4m3127-4th-NNS6-17]	20.4	–
C4m3127-4th-NNS6-28 (GGCLHPFLPIFSSHFCAL; C4m3127-4th-NNS6-28) [Clone C4m3127-4th-NNS6-28]	23.2	–
C4m3127-4th-NNS6-30 (GGCWHPCLPILSPHFCPR; C4m3127-4th-NNS6-30) [Clone C4m3127-4th-NNS6-30]	7.5	–
C4m3127-4th-NNS6-60 (GGCWHPFLPISSWHFCGL; C4m3127-4th-NNS6-60) [Clone C4m3127-4th-NNS6-60]	11.9	–
C4m3127-4th-NNS6-64 (GGCLHPYLPIVSSHFCPF; C4m3127-4th-NNS6-64) [Clone C4m3127-4th-NNS6-64]	12.9	–
C4m3127-4th-NNS6-70 (GGCSHPYLPIHSRHFCLS; C4m3127-4th-NNS6-70) [Clone C4m3127-4th-NNS6-70]	4.6	–
C4m3127-4th-NNS6-72 (GGCVHPYLPISSIHFCSM; C4m3127-4th-NNS6-72) [Clone C4m3127-4th-NNS6-72]	20.0	–
C4m3127-4th-NNS6-79 (GGCLHPFLPIRSVHFCLR; C4m3127-4th-NNS6-79) [Clone C4m3127-4th-NNS6-79]	12.8	–
C4m3127-4th-NNS6-80 (GGCGHPFLPIFSLHFCPR; C4m3127-4th-NNS6-80) [Clone C4m3127-4th-NNS6-80]	12.8	–
C4m3127-4th-NNS6-87 (GGCRHPWLPIVSWHFCSR; C4m3127-4th-NNS6-87) [Clone C4m3127-4th-NNS6-87]	21.4	–
C4m3127-4th-NNS6-90 (GGCKHPVLPIVSLHFCPW; C4m3127-4th-NNS6-90) [Clone C4m3127-4th-NNS6-90]	22.9	–
C4m3127-4th-NNS6-94 (GGCRHPVLPIWSSHFCPW; C4m3127-4th-NNS6-94) [Clone C4m3127-4th-NNS6-94]	5.9	–

Substance	ELISA S/N(SA) [1]	ELISA S/N(SA) [2]
C4m3127-4th-NNS6-95 (GGCWHPVLPIRSGHFCSR; C4m3127-4th-NNS6-95) [Clone C4m3127-4th-NNS6-95]	–	3.4
C4m#19-5th2w-NNS6-4 (GGCFHPWLPISSLHFCPF; C4m#19-5th2w-NNS6-4)	6.3	–
C4m#19-5th2w-NNS6-6 (GGCWHPYLPILSLHFCQR; C4m#19-5th2w-NNS6-6)	10.3	–
C4m#19-5th2w-NNS6-8 (GGCRHPFLPIFSLHFCAR; C4m#19-5th2w-NNS6-8)	16.5	–
C4m#19-5th2w-NNS6-12 (GGCWHPYLPIRSVHFCGR; C4m#19-5th2w-NNS6-12)	20.4	–
C4m#19-5th2w-NNS6-14 (GGCWHPFLPIRSYHFCPW; C4m#19-5th2w-NNS6-14)	34.7	–
C4m#19-5th2w-NNS6-25 (GGCKHPFLPISSHHFCPY; C4m#19-5th2w-NNS6-25)	21.1	–
C4m#19-5th2w-NNS6-27 (GGCFHPFLPIRSCHFCAR; C4m#19-5th2w-NNS6-27)	9.9	–
C4m#19-5th2w-NNS6-30 (GGCWHPFLPILSWHFCGR; C4m#19-5th2w-NNS6-30)	9.0	–
C4m#19-5th2w-NNS6-33 (GGCRHPFLPIWSFHFCWG; C4m#19-5th2w-NNS6-33)	9.4	–
C4m#19-5th2w-NNS6-34 (GGCCHPFLPIYSVHFCAS; C4m#19-5th2w-NNS6-34)	5.0	–
C4m#19-5th2w-NNS6-41 (GGCWHPVLPIRSDHFCCR; C4m#19-5th2w-NNS6-41)	–	3.1
C4m#19-5th2w-NNS6-45 (GGCRHPFLPIWSVHFCWR; C4m#19-5th2w-NNS6-45)	11.0	–
C4m#19-5th2w-NNS6-51 (GGCRHPFLPIVSLHFCPF; C4m#19-5th2w-NNS6-51)	15.8	–
C4m#19-5th2w-NNS6-53 (GGCLHPWLPIRSFHFCGA; C4m#19-5th2w-NNS6-53)	11.4	–
C4m#19-5th2w-NNS6-66 (GGCRHPFLPIFSVHFCPF; C4m#19-5th2w-NNS6-66)	4.4	–

The next lines start with the values.

ELISA S/N(SA) [1]	ELISA S/N(SA) [2]	Substance
15.8	–	C4m3127-4th-NNS6-12 (GGCSHPFLPIRSRHFCPF; C4m3127-4th-NNS6-12) [Clone C4m3127-4th-NNS6-12]
4.1	–	C4m3127-4th-NNS6-19 (GGCMHPSLPIWSWHFCPH; C4m3127-4th-NNS6-19) [Clone C4m3127-4th-NNS6-19]
4.4	–	C4m3127-4th-NNS6-20 (GGCLHPFLPILSLHFCPF; C4m3127-4th-NNS6-20) [Clone C4m3127-4th-NNS6-20]
7.1	–	C4m3127-4th-NNS6-26 (GGCAHPALPIWSCHFCPF; C4m3127-4th-NNS6-26) [Clone C4m3127-4th-NNS6-26]
–	3.5	C4m3127-4th-NNS6-37 (GGCWHPVLPIRSIHFCGC; C4m3127-4th-NNS6-37) [Clone C4m3127-4th-NNS6-37]
13.5	–	C4m3127-4th-NNS6-48 (GGCFHPWLPIASWHFCGR; C4m3127-4th-NNS6-48) [Clone C4m3127-4th-NNS6-48]
4.8	–	C4m3127-4th-NNS6-66 (GGCAHPHLPIRSVHFCSF; C4m3127-4th-NNS6-66) [Clone C4m3127-4th-NNS6-66]
20.7	–	C4m3127-4th-NNS6-83 (GGCRHPFLPIFSKHFCEL; C4m3127-4th-NNS6-83) [Clone C4m3127-4th-NNS6-83]
9.1	–	C4m3127-4th-NNS6-85 (GGCGHPFLPIFSSHFCPL; C4m3127-4th-NNS6-85) [Clone C4m3127-4th-NNS6-85]
6.6	–	C4m3127-4th-NNS6-89 (GGCWHPFLPIFSAHFCMR; C4m3127-4th-NNS6-89) [Clone C4m3127-4th-NNS6-89]
18.4	–	C4m#19-5th2w-NNS6-3 (GGCAHPFLPIFSPHFCPF; C4m#19-5th2w-NNS6-3)
31.1	–	C4m#19-5th2w-NNS6-21 (GGCWHPFLPIRSSHFCPS; C4m#19-5th2w-NNS6-21)
29.3	–	C4m#19-5th2w-NNS6-22 (GGCMHPFLPIQSVHFCSR; C4m#19-5th2w-NNS6-22)
5.8	–	C4m#19-5th2w-NNS6-26 (GGCLHPFLPIVSIHFCSA; C4m#19-5th2w-NNS6-26)
6.3	–	C4m#19-5th2w-NNS6-28 (GGCAHPYLPIRSVHFCPC; C4m#19-5th2w-NNS6-28)
9.4	–	C4m#19-5th2w-NNS6-37 (GGCIHPFLPIWSIHFCSR; C4m#19-5th2w-NNS6-37)
4.8	–	C4m#19-5th2w-NNS6-43 (GGCRHPFLPIWSSHFCAA; C4m#19-5th2w-NNS6-43)
6.1	–	C4m#19-5th2w-NNS6-46 (GGCFHPFLPIFSYHFCGL; C4m#19-5th2w-NNS6-46)
28.3	–	C4m#19-5th2w-NNS6-55 (GGCMHPYLPIKSVHFCPL; C4m#19-5th2w-NNS6-55)
4.3	–	C4m#19-5th2w-NNS6-61 (GGCCHPWLPIRSVHFCPF; C4m#19-5th2w-NNS6-61)
25.5	–	C4m#19-5th2w-NNS6-67 (GGCQHPWLPISSWHFCPR; C4m#19-5th2w-NNS6-67)
